Laboratory results reported in US20240158474A1 (SINO BIOLOGICAL, published 2024).

Target: T1, HPV51 VLP protein (human papillomavirus type 51, UniProt P26536 1-474)
T1 construct: Complete VLP protein; no limits of the construct printed, whole entry named; also called HPV51L1
T1 sequence: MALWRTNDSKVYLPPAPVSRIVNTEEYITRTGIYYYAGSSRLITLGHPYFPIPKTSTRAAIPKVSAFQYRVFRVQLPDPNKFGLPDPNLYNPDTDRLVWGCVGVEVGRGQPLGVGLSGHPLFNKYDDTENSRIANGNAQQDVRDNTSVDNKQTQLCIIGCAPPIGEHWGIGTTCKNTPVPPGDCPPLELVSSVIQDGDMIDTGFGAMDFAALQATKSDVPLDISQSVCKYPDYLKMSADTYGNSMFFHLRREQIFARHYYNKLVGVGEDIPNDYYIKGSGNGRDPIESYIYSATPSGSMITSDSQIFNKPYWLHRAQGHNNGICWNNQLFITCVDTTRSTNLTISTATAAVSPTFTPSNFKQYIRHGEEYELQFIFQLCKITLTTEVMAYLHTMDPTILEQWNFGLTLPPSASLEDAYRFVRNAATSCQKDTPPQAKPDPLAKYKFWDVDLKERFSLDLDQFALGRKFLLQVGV
Assay: double-antibody sandwich ELISA on the mixture of 13 HPV VLPs

B1: monoclonal antibody HPV6-R003 (antibody, V domains shown)
VH: QQQLEESGGGLVKPGGTLTLTCKASGIDLSNYYMCWVRQAPGKGLEWIGCIYTGSGRTYYASWAKGRFTISKASSTTVTLQMTSLTAADTATYFCARDYLGWRASNIWGPGTLVTVSS
VL: ELVMTQTPSSVSAAVGGTVTINCQASQSVYSNNLVWYQQKPGQPPKLLIYGASTLASGVPSRFKGSGSGTQFTLTISDVVCDDAATYYCGGYVSDSTDGTAFGGGTEVVVKG
notes: here built from variable plus constant region so that the signal peptides are left out; In the sandwich ELISA the same antibody is used as coating antibody and, labelled with horseradish peroxidase, as detection antibody; also called anti-HPV6 L1 protein antibody
B1: no binding (tested: mixture 50 ng/mL, each subtype 1/13).
